“And” between values parts separate entries of the source, which are not always exact repeats. Equal entries are not always repeated.

In assay [1] the target is fluorescent-binding TNF nanobody (BTN-Kat) (Bactrian camel). Description: SEC; Superose 6, 5 mg/mL protein, 20 mM NaPi pH 7.4, 150 mM NaCl, 0.5 mL/min; apparent molecular mass from calibration with standard proteins. On the technique in general: SEC sorts molecules by how far they enter the pores of the column.
Assay [2] concerns the target T1, human tumor necrosis factor (TNF) (Homo sapiens (huTNFKI mouse BMDM), UniProt P01375).
T1 construct: tumor necrosis factor, human, expressed in place of murine TNF in huTNFKI mice; stained inside fixed and permeabilised cells kept with brefeldin A; in the in vivo rows the hTNF of the knock-in mice; also called hTNF; human TNF
Description: flow cytometry on cells; intracellular cytokine staining (BD fixation and permeabilisation kit with GolgiPlug) of BMDM activated by LPS (100 ng/mL, 4 h) in the presence of brefeldin A; Fc-gamma receptor blocked; cells gated on F4/80; Katushka fluorescence read. The note with it: one partner purified. On the technique in general: Flow cytometry measures light scatter and fluorescence of single cells or particles in a stream.

Assay [3] concerns the target T2, mouse tumor necrosis factor (TNF) (Mus musculus C57Bl/6, UniProt P06804).
T2 construct: tumor necrosis factor, mouse; stained inside fixed and permeabilised cells kept with brefeldin A; also called mouse TNF; murine TNF
The description is as above. The note with it: one partner purified.

T2 sequence (P06804 whole entry): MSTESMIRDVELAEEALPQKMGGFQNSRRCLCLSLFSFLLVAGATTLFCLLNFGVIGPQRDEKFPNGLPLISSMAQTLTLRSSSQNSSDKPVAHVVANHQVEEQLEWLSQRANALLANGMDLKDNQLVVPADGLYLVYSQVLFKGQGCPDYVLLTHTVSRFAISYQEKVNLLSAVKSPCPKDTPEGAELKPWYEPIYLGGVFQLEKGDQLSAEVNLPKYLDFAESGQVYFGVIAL
T1 sequence (P01375 whole entry): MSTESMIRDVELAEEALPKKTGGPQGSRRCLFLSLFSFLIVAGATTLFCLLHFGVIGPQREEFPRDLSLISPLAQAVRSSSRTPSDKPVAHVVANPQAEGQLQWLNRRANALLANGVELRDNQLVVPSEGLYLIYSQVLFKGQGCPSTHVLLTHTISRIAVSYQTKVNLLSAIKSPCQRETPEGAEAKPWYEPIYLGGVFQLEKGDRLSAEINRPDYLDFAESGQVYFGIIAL

B1: fluorescent-binding TNF nanobody (BTN-Kat) (VHH)
VHH: QVQLVESGGGSVQAGGSLRLSCAASGSTNSELCMAWFREVPGKEREVVALVNSDGRTIYGEAVKGRFTMSKDNAKNTLYLQMNSLKAEDTAMYYCAAGPGFFGRCNYNSVGQGTQVTVSS
notes: flexible glycine-serine linker; far-red fluorescent protein Katushka (TurboFP635); A mixture of oligomeric forms was used in all experiments; Expression and purification are in Method S1; also called VHH41 fused to Katushka; source: E. coli (BL21(DE3) is named in the title of Result S1), purified
As to B1, the stoichiometry N in assay [1] is 2 and 3. The binding result in assay [2] and in assay [3] was “binds” in each case.

The term stoichiometry N denotes the number of molecules, sites or subunits per partner or assembly.

Source of the values: PMC6698962 (Antibodies, 2018).
